Experimental data: US20120178701A1 (PALATIN TECHNOLOGIES, published 2012)
Bridge positions count the residues as written; N and C are the ends. Square brackets hold non-standard residues; d marks the D form. Aad = N[C@@H](CCCC(=O)O)C(=O)O; Orn = NCCC[C@H](N)C(=O)O; Dab = NCC[C@H](N)C(=O)O

B1: Ac-Arg-cyclo(Asp-Gln-D-Phe-Arg-Trp-Lys)-NH2 (peptide)
peptide: Ac-RDQ[dF]RWK-NH2
modifications: lactam 2-7
notes: any difference is only in the drawings; also called peptide No. 32
B2: Ac-Arg-cyclo(Dab-Gln-D-Phe-Arg-Trp-hGlu)-NH2 (peptide)
peptide: RXQFRWX
modifications: N-acetyl; X2 = Dab; D-Phe 4; X7 = hGlu; side-chain lactam Dab2-hGlu7; C-terminal amide
notes: also called peptide No. 159
B3: Ac-Arg-cyclo(Lys-Asn-D-Phe-Arg-Nal 2-Asp)-NH2 (peptide)
peptide: RKNFRXD
HELM: PEPTIDE1{[ac].R.K.N.[dF].R.[O=C([C@H](Cc1ccc2ccccc2c1)N[*:1])[*:2]].D.[am]}$PEPTIDE1,PEPTIDE1,3:R3-8:R3$$$V2.0
SMILES: CC(=O)N[C@@H](CCCNC(=N)N)C(=O)N[C@H]1CCCCNC(=O)C[C@@H](C(N)=O)NC(=O)[C@H](Cc2ccc3ccccc3c2)NC(=O)[C@H](CCCNC(=N)N)NC(=O)[C@@H](Cc2ccccc2)NC(=O)[C@H](CC(N)=O)NC1=O
notes: also called peptide No. 162

What was measured:
[1] = biological target: T1, human recombinant melanocortin-4 receptor (human, UniProt P32245 1-332); test: cell-based or functional assay
T1 sequence (P32245 whole entry): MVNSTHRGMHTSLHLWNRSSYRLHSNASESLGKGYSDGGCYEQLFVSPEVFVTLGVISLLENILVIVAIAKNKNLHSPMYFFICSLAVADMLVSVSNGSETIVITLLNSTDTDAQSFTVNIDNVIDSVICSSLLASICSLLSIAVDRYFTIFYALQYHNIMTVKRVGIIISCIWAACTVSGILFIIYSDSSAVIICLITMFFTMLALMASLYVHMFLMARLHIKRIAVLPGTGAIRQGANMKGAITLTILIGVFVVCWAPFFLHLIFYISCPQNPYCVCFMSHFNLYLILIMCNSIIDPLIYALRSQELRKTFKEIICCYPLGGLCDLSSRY

[2] = biological target: T2, human recombinant melanocortin-3 receptor (human, UniProt P41968 1-323); test: competitive binding vs Eu-labeled NDP-α-MSH
T2 construct: whole, on cells; Membrane homogenates of HEK-293 cells expressing the receptor; also called hMC3-R; MC3-R
T2 sequence (P41968 whole entry): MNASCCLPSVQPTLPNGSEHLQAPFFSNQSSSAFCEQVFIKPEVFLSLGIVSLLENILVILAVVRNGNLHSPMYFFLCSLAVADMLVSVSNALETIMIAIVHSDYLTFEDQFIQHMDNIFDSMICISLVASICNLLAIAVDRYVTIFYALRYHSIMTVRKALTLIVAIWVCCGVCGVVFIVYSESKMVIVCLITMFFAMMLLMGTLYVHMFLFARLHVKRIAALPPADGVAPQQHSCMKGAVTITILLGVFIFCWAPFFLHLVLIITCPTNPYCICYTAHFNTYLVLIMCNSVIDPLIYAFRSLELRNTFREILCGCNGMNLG

[3] = biological target: T3, endogenous MC1-R of B-16 mouse melanoma cells (mouse, UniProt Q01727 1-315); test: competitive binding vs Eu-labeled NDP-α-MSH
T3 construct: whole, on cells; membrane homogenates; also called mouse B16 MC1-R
T3 sequence (Q01727 whole entry): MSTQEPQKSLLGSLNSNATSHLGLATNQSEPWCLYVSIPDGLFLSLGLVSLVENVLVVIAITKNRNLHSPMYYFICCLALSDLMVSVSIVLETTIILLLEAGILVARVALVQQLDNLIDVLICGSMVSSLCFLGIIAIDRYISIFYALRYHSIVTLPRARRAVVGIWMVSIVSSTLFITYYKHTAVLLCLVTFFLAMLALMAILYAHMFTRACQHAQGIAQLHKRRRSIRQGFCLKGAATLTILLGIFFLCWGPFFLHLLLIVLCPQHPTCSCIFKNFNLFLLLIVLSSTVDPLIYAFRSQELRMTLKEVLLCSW

[4] = biological target: T1, human recombinant melanocortin-4 …; test: cell-based or functional assay; remark: listed apart in the source
[5] = biological target: T4, human recombinant melanocortin-1 receptor (human, UniProt Q01726 1-317); test: cell-based or functional assay
T4 sequence (Q01726 whole entry): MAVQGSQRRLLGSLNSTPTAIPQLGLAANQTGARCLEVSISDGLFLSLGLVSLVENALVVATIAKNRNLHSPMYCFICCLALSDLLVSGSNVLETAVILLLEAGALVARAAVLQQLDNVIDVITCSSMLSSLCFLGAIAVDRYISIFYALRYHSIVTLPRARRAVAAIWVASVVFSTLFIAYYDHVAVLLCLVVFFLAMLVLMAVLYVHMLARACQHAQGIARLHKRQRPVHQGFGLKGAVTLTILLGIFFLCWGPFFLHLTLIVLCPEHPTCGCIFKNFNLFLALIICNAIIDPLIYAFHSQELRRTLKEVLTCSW

[6] = biological target: T1, human recombinant melanocortin-4 …; test: competitive inhibition of labelled NDP-α-MSH, hMC4-R membranes
[7] = biological target: T1, human recombinant melanocortin-4 …; test: competitive inhibition of [I125]-NDP-α-MSH, hMC4-R HEK-293 membranes
Protocol: (§1) A competitive inhibition binding assay is performed using membrane homogenates prepared from HEK-293 cells that express recombinant hMC4-R, hMC3-R, or hMC5-R, and from B-16 mouse melanoma cells (containing endogenous MC1-R). In some instances, HEK-293 cells that express recombinant hMC1-R were employed. In the examples that follow, all MC3-R, MC4-R and MC5-R values are for human recombinant receptors. […] Membrane homogenates were incubated with 0.2 nM (for hMC4-R) 0.4 nM (for MC3-R and MC5-R) or 0.1 nM (for mouse B16 MC1-R or hMC1-R) [I¹²⁵]-NDP-α-MSH (Perkin Elmer) and increasing concentrations of test peptides of the present invention in buffer containing 25 mM HEPES buffer (pH 7.5) with 100 mM NaCl, 2 mM CaCl₂, 2 mM MgCl₂, 0.3 mM 1,10-phenanthroline, and 0.2% bovine serum albumin. After incubation for 60 minutes at 37° C., the assay mixture was filtered and the membranes washed three times with ice-cold buffer. Filters were dried and counted in a gamma counter for bound radioactivity. […] Maximal specific binding (100%) was defined as the difference in radioactivity (cpm) bound to cell membranes in the absence and presence of 1 μM NDP-α-MSH. […] Each assay was conducted in triplicate and the actual mean values are described, with results less than 0% reported as 0%. Ki values for test peptides of the present invention were determined using Graph-Pad Prism® curve-fitting software.
9.1 Peptides of the following structures were synthesized by the general methods described above, and averaged MC4-R Ki values for peptides were determined as indicated. […] Ki values marked “ND” were not determined.

[8] = biological target: T3, endogenous MC1-R of B-16 mouse melanoma …; test: competitive binding vs [I125]-NDP-α-MSH
Protocol: (§2) After incubation for 60 minutes at 37° C., the assay mixture was filtered and the membranes washed three times with ice-cold buffer. Filters were dried and counted in a gamma counter for bound radioactivity. […] Maximal specific binding (100%) was defined as the difference in radioactivity (cpm) bound to cell membranes in the absence and presence of 1 μM NDP-α-MSH. […] Each assay was conducted in triplicate and the actual mean values are described, with results less than 0% reported as 0%. Ki values for test peptides of the present invention were determined using Graph-Pad Prism® curve-fitting software.

[9] = biological target: T2, human recombinant melanocortin-3 …; test: competitive binding vs [I125]-NDP-α-MSH
Protocol: as §2

[10] = biological target: T4, human recombinant melanocortin-1 …; test: competitive inhibition of labelled NDP-α-MSH, hMC1-R membranes
Protocol: as §1

[11] = biological target: T1, human recombinant melanocortin-4 …; test: ratio of Ki values, hMC1-R as reference

| Binder | intrinsic activity (cAMP; NDP-α-MSH = 100%) [1] | Ki [2] | Ki [3] | hMC4-R EC50 [4] | hMC4-R Emax (%) [4] | hMC1-R Emax (%) [5] | Ki [6] | Ki [7] | Ki [8] | EC50 (cAMP) [1] | Ki [9] | hMC1-R EC50 [5] | Ki [10] | binding selectivity, MC4-R against MC1-R [11] |
| --- | --- | --- | --- | --- | --- | --- | --- | --- | --- | --- | --- | --- | --- | --- |
| Ac-RDV[dF]RWK-NH2 (lactam 2-7, also called peptide No. 16) [Ac-Arg-cyclo(Asp-Val-D-Phe-Arg-Trp-Lys)-NH2] | 42% | 1060 nM | 323 nM |  |  |  |  |  |  |  |  |  |  |  |
| Ac-[dR]DQ[dF]RWK-NH2 (lactam 2-7, also called peptide No. 71) [Ac-D-Arg-cyclo(Asp-Gln-D-Phe-Arg-Trp-Lys)-NH2] |  |  |  | 2 nM | 89% | 88% | 45 nM | 45 nM |  |  |  |  |  |  |
| Ac-RDH[dF]RWK-NH2 (lactam 2-7, also called peptide No. 1) [Ac-Arg-cyclo(Asp-His-D-Phe-Arg-Trp-Lys)-NH2] | 91% | 103 nM | 4 nM |  |  |  |  |  | 3 nM |  |  |  |  |  |
| B1 | 98% |  | 673 nM |  |  |  |  |  | 133 nM | 17 nM | 340 nM |  |  |  |
| Ac-R[Orn]N[dF]RWE-NH2 (lactam 2-7, also called peptide No. 154) [Ac-Arg-cyclo(Orn-Asn-D-Phe-Arg-Trp-Glu)-NH2] |  |  |  |  |  |  |  |  |  |  |  | 25 nM | 688 nM |  |
| Ac-[dR][Orn]N[dF]RWE-NH2 (lactam 2-7, also called peptide No. 156) [Ac-D-Arg-cyclo(Orn-Asn-D-Phe-Arg-Trp-Glu)-NH2] |  |  |  |  |  | 81% |  |  |  |  |  | 80 nM | 840 nM |  |
| Ac-RKN[dF]RWD-NH2 (lactam 2-7) [Ac-Arg-cyclo(Lys-Asn-D-Phe-Arg-Trp-Asp)-NH2] |  |  |  | 0.189 nM | 97% | 91% | 5 nM | 5 nM |  |  |  | 14 nM | 240 nM | ≥ 20 fold |
| B2 |  |  |  | 0.825 nM | 99% | 98% | 4 nM | 4 nM |  |  |  | 26 nM | 133 nM | ≥ 20 fold |
| Ac-R[Aad]N[dF]RW[Dab]-NH2 (lactam 2-7, also called peptide No. 160) [Ac-Arg-cyclo(hGlu-Asn-D-Phe-Arg-Trp-Dab)-NH2] |  |  |  | 0.245 nM | 98% |  | 8 nM | 8 nM |  |  |  |  | 295 nM |  |
| Ac-REN[dF]RW[Orn]-NH2 (lactam 2-7, also called peptide No. 161) [Ac-Arg-cyclo(Glu-Asn-D-Phe-Arg-Trp-Orn)-NH2] |  |  |  | 0.413 nM | 91% | 85% | 6 nM | 6 nM |  |  |  | 13 nM | 155 nM | ≥ 20 fold |
| Ac-R[Dab]H[dF]RW[Aad]-NH2 (lactam 2-7) [Ac-Arg-cyclo(Dab-His-D-Phe-Arg-Trp-hGlu)-NH2] | 95% |  |  |  |  |  |  |  |  |  |  |  |  |  |
| B3 |  |  |  | 0.85 nM | 82% | 89% | 5 nM | 5 nM |  |  |  | 22 nM | 255 nM | ≥ 20 fold |
